The Human Domainome abundance scans (Beltran et al. 2025)

B1: POU domain, class 2, transcription factor 1, residues 285 to 354; numbered along this chain, P14859 (parent)
chain: LEELEQFAKTFKQRRIKLGFTQGDVGLAMGKLYGNDFSQTTISRFEALNLSFKNMCKLKPLLEKWLNDAE

Variants of: B1
Assay: abundance fitness (aPCA) (normalised: wild type 0, dead -1); higher = more abundant; growth selection in yeast, the domain comes from the species named
Conditions: Homo sapiens

Abundance fitness of substitutions, site by site:
K53: M 0.078 | L 0.008 | Y -0.122 | R 0.015 | H -0.024 | Q -0.019 | A 0.049 | S -0.006 | T -0.028 | D -0.029 | I 0.089 | C 0.015 | P 0.007 | N 0.063 | F 0.041 | E 0.039 | G -0.017 | V -0.048
S51: T -0.035 | A -0.055 | H -0.076 | I -0.801 | E 0.003 | R -0.056 | Y -0.496 | W -0.982 | K -0.023 | P 0.002 | F -0.807 | N -0.099 | C -0.086 | L -0.579 | G 0.028 | M -0.472 | Q -0.09
R44: K -0.048 | A 0.013 | I -0.794 | L -0.026 | D -0.058 | T -0.089 | N -0.165 | H -0.027 | S 0.015 | Q 0.042 | M -0.032 | W -0.253 | Y -0.155 | P -1.02 | E -0.059 | C -0.053
M55: C -0.12 | V -0.167 | D -0.381 | G -0.068 | Y -0.153 | S -0.1 | K -0.51 | H -0.247 | W -0.271 | L -0.013 | E -0.488 | I -0.086 | R -0.48 | P -0.991 | Q -0.034 | F -0.107
F37: T -0.059 | R -0.355 | V 0.038 | S -0.119 | P -0.148 | Q -0.214 | Y -0.135
T40: P -0.032 | I -0.142 | S -0.007 | M -0.059 | E -0.354 | D -0.15 | R 0.014 | L -0.001 | H -0.035 | N 0.004 | K -0.071 | F 0.067 | C 0.019 | G -0.028 | Y 0.077 | W -0.054 | Q 0.016
F52: V 0.009 | P -0.324 | S -0.017 | Y 0.001 | D 0.007 | K -0.024 | C -0.037 | H 0.059 | G -0.059 | L -0.005 | I 0.013 | W -0.002 | M -0.026 | Q -0.059 | N -0.039 | T 0.02 | A 0.017 | R -0.001 | E -0.035
A47: Q 0.017 | R -0.044 | S -0.048 | D 0.092 | K -0.015 | P -0.964 | H -0.107 | G 0.001 | E 0.055 | N 0.033 | L 0.054
E46: G -0.929 | H -0.856 | W -0.698 | D -0.754 | T -0.934 | I -0.84 | Q -0.851 | V -0.852 | K -0.658 | L -1.01 | C -0.801 | Y -1.02 | F -1 | N -0.783
N54: M -0.005 | S 0.009 | H 0.004 | T -0.008 | P -0.135 | C 0.011 | Y -0.01 | V 0.006 | I 0.054 | D 0.08 | K 0.009 | A 0.019 | L -0.005 | G -0.018
T41: V -0.029 | F -0.1 | H -0.052 | L -0.023 | N -0.029 | C -0.08 | W -0.088 | R -0.098 | Q -0.028 | K 0.022 | A -0.02 | P -0.209 | I -0.067 | D -0.018 | E -0.163 | S 0.005 | M -0.029
F45: S -0.864 | K -0.97 | A -0.62 | M -0.137 | Y -0.133 | C -0.451 | N -1.04 | W -0.247 | L -0.115 | P -1.04 | H -0.952 | V -0.429 | T -0.847 | R -1.01 | I -0.382 | Q -1.02 | E -1.01
S38: Y -0.271 | R -0.061 | E -0.03 | T 0.012 | A -0.038 | N -0.032 | G 0.023 | P -0.041 | D 0.048 | F -0.199 | K -0.011 | Q -0.03
N49: G -0.002 | K -0.045 | C -0.086 | S -0.004 | W -0.218 | V -0.052 | P -0.65 | F -0.279 | R -0.079 | L -0.029 | H -0.063 | Y -0.063 | T 0.03 | E 0.043 | D 0.033 | Q 0.007 | I 0.025
L50: Y -0.03 | G -0.074 | R -0.738 | V -0.1 | D -0.026 | M 0.038 | E -0.041 | I -0.135 | P -0.678 | T -0.073 | W -0.148 | C 0.007 | A -0.121 | N -0.385 | Q -0.207 | S -0.151
Q39: A 0.015 | H 0.028 | W -0.005 | E 0.013 | G 0.005 | N -0.055 | D 0.008 | I -0.057 | R 0.005 | F -0.14 | S 0.015 | T 0.008 | M -0.056 | K 0.014 | P -0.011 | V -0.033 | L -0.026 | C -0.037
L48: S -0.005 | W -0.142 | P -0.336 | T -0.004 | Q 0.006 | I 0.014 | N -0.03 | A -0.054 | V -0.085 | R 0.004 | K 0.084 | F -0.054 | C 0.001 | M -0.007 | Y -0.053
L58: I -0.027 | E -0.526 | D -0.474 | A -0.062 | G -0.632 | F -0.026 | H -0.046 | C -0.019
I42: W -0.655 | H -0.983 | K -0.789 | L -0.074 | D -1.08 | N -0.805 | M -0.276 | S -0.997 | G -1.09 | C -0.336 | R -0.869 | Y -0.674 | Q -0.948 | P -0.877 | A -0.655
S43: H -0.077 | K 0.121 | A 0.035 | Q 0.029 | G -0.156 | W -0.086 | N 0.005 | C -0.033 | M -0.013 | T -0.007 | F -0.088 | D -0.161 | I -0.064 | Y -0.053 | R 0.018 | P -0.03 | L -0.067 | E -0.013
C56: P -0.681 | V -0.01 | M 0.034 | H -0.085 | Y 0.042 | K -0.201 | Q 0.063 | A -0.004 | G -0.047 | F 0.027 | T 0.023 | S 0.032 | I -0.014 | W -0.005 | L -0.016
K57: R -0.047 | G -0.082 | P -0.451 | Y 0.031 | A -0.031 | S -0.006 | M -0.063 | C 0.005 | W -0.042 | D 0.04 | I -0.058 | L -0.005 | F -0.027 | H -0.069 | Q -0.018 | E -0.004 | V -0.024
